Assay results from the supplement of paper PMC10567573.

B1: MATN2 (parent)
chain: VNVPGSFVCQCYSGYALAEDGKRC
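Also: lentivirally expressed fusions sorted by FACS into six bins by GFP to DsRed ratio, PSI derived from sequencing read proportions per bin multiplied by bin number.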

Variants of: B1
Assay: protein stability index of a GFP-peptide fusion (GPS, HEK-293T) (PSI 1-6); higher = more stable
Settings: c terminus: a fixed tail appended
For VNVPGSFVCQVYSGYALAEDGKRC, the protein stability index was 1.7.
For VNVPGSFVCQLYSGYALAEDGKRC, the protein stability index was 2.19.
Variant VNVPGSFVCQYYSGYALAEDGKRC has a protein stability index of 2.1.
VNVPGSFVCQFYSGYALAEDGKRC showed a protein stability index of 2.48.
VNVPGSFVCQMYSGYALAEDGKRC showed a protein stability index of 1.86.
VNVPGSFVCQWYSGYALAEDGKRC gave a protein stability index of 2.05.
With VNVPGSFVCQCYSGYALFEDGKRC the protein stability index was 2.48.
In the case of VNVPGSFVCQCYSGYALEEDGKRC, the protein stability index is reported as 2.56.
With VNVPGSFVCQCYSGYALGEDGKRC the protein stability index was 1.82.
VNVPGSFVCQCYSGYALKEDGKRC gave a protein stability index of 1.73.
VNVPGSFVCQCYSGYALLEDGKRC showed a protein stability index of 2.32.
VNVPGSFVCQCYSGYALPEDGKRC showed a protein stability index of 1.65.
In the case of VNVPGSFVCQCYSGYALMEDGKRC, the protein stability index is reported as 1.34.
VNVPGSFVCQCYSGYALCEDGKRC gave a protein stability index of 3.33.
VNVPGSFVCQCYSGYALIEDGKRC showed a protein stability index of 1.64.
For VNVPGSFVCQCYSGYALNEDGKRC, the protein stability index was 2.09.
Variant VNVPGSFVCQCYSGYALTEDGKRC has a protein stability index of 2.
VNVPGSFVCQCYSGTALAEDGKRC showed a protein stability index of 2.33.
Variant VNVPGSFVCQCYSGSALAEDGKRC has a protein stability index of 3.02.
Variant VNVPGSFVCQCYSGRALAEDGKRC has a protein stability index of 2.
Variant VNVPGSFVCQCYSGFALAEDGKRC has a protein stability index of 2.38.
VNVPGSFVCQCYSGKALAEDGKRC showed a protein stability index of 1.98.
With VNVPGSFVCQCYSGCALAEDGKRC the protein stability index was 2.77.
Variant VNVPTSFVCQCYSGYALAEDGKRC has a protein stability index of 1.87.
Variant VNVPWSFVCQCYSGYALAEDGKRC has a protein stability index of 4.67.
Work on VNVPASFVCQCYSGYALAEDGKRC yielded a protein stability index of 1.67.
Variant VNVPDSFVCQCYSGYALAEDGKRC has a protein stability index of 2.06.
Work on VNVPQSFVCQCYSGYALAEDGKRC yielded a protein stability index of 2.14.
With VNVPCSFVCQCYSGYALAEDGKRC the protein stability index was 2.68.
With VNVPNSFVCQCYSGYALAEDGKRC the protein stability index was 1.75.
With VNVPGSFVCQCYSGYALAEDGYRC the protein stability index was 1.47.
With VNVPGSFVCQCYSGYALAEDGERC the protein stability index was 2.03.
VNVPGSFVCQCYSGYALAEDGFRC showed a protein stability index of 1.81.
Work on VNVPGSFVCQCYSGYALAEDGTRC yielded a protein stability index of 2.6.
VNVPGSFVCQCYSGYALAEDGCRC gave a protein stability index of 3.96.
For VNVPGSFVCQCYSGYALAEDGHRC, the protein stability index was 2.68.
With VNVPGSFVCQCYSGYALAEDGIRC the protein stability index was 1.5.
For VCVPGSFVCQCYSGYALAEDGKRC, the protein stability index was 2.12.
In the case of VDVPGSFVCQCYSGYALAEDGKRC, the protein stability index is reported as 2.19.
In the case of VEVPGSFVCQCYSGYALAEDGKRC, the protein stability index is reported as 3.38.
For VVVPGSFVCQCYSGYALAEDGKRC, the protein stability index was 1.25.
Work on VPVPGSFVCQCYSGYALAEDGKRC yielded a protein stability index of 2.75.
VSVPGSFVCQCYSGYALAEDGKRC gave a protein stability index of 1.82.
VYVPGSFVCQCYSGYALAEDGKRC showed a protein stability index of 1.41.
Work on VWVPGSFVCQCYSGYALAEDGKRC yielded a protein stability index of 1.79.
In the case of VGVPGSFVCQCYSGYALAEDGKRC, the protein stability index is reported as 1.89.
Variant VNVPGFFVCQCYSGYALAEDGKRC has a protein stability index of 3.53.
Variant VNVPGTFVCQCYSGYALAEDGKRC has a protein stability index of 2.12.
Variant VNVPGDFVCQCYSGYALAEDGKRC has a protein stability index of 2.97.
Variant VNVPGGFVCQCYSGYALAEDGKRC has a protein stability index of 1.47.
VNVPGWFVCQCYSGYALAEDGKRC gave a protein stability index of 2.04.
Variant VNVPGKFVCQCYSGYALAEDGKRC has a protein stability index of 1.89.
Variant VNVPGQFVCQCYSGYALAEDGKRC has a protein stability index of 1.81.
VNVPGSFMCQCYSGYALAEDGKRC gave a protein stability index of 2.79.
Variant VNVPGSFCCQCYSGYALAEDGKRC has a protein stability index of 1.27.
VNVPGSFICQCYSGYALAEDGKRC gave a protein stability index of 2.21.
VNVPGSFACQCYSGYALAEDGKRC showed a protein stability index of 2.16.
Variant VNVPGSFTCQCYSGYALAEDGKRC has a protein stability index of 1.96.
For VNVPGSFLCQCYSGYALAEDGKRC, the protein stability index was 2.35.
Variant VNVPGSFNCQCYSGYALAEDGKRC has a protein stability index of 2.51.
Work on VNVPGSFSCQCYSGYALAEDGKRC yielded a protein stability index of 3.19.
With VNVPGSFKCQCYSGYALAEDGKRC the protein stability index was 2.74.
With VNVPGSFYCQCYSGYALAEDGKRC the protein stability index was 3.01.
Variant VNVPGSFVCQCYSGYALAIDGKRC has a protein stability index of 2.77.
With VNVPGSFVCQCYSGYALAFDGKRC the protein stability index was 1.17.
Variant VNVPGSFVCQCYSGYALAHDGKRC has a protein stability index of 3.03.
For VNVPGSFVCQCYSGYALAWDGKRC, the protein stability index was 1.86.
In the case of VNVPGSFVCQCYSGYALADDGKRC, the protein stability index is reported as 1.76.
Variant VNVPGSFVCQCYSGYALANDGKRC has a protein stability index of 2.79.
Work on VNVPGSFVCQCYSGYALATDGKRC yielded a protein stability index of 1.75.
In the case of VNVPGSFVLQCYSGYALAEDGKRC, the protein stability index is reported as 2.05.
In the case of VNVPGSFVQQCYSGYALAEDGKRC, the protein stability index is reported as 2.97.
For VNVPGSFVHQCYSGYALAEDGKRC, the protein stability index was 2.95.
Variant VNVPGSFVKQCYSGYALAEDGKRC has a protein stability index of 3.08.
In the case of VNVPGSFVFQCYSGYALAEDGKRC, the protein stability index is reported as 2.54.
VNVPGSFVNQCYSGYALAEDGKRC showed a protein stability index of 3.12.
VNVPGSFVWQCYSGYALAEDGKRC showed a protein stability index of 2.21.
Work on VNVPGSFVCNCYSGYALAEDGKRC yielded a protein stability index of 2.31.
In the case of VNVPGSFVCSCYSGYALAEDGKRC, the protein stability index is reported as 2.29.
Variant VNVPGSFVCWCYSGYALAEDGKRC has a protein stability index of 2.32.
For VNVPGSFVCKCYSGYALAEDGKRC, the protein stability index was 1.7.
For VNVPGSFVCCCYSGYALAEDGKRC, the protein stability index was 1.7.
In the case of VNVPGSFVCFCYSGYALAEDGKRC, the protein stability index is reported as 2.64.
For VNVPGSFVCECYSGYALAEDGKRC, the protein stability index was 1.55.
Variant VNVPGSFVCVCYSGYALAEDGKRC has a protein stability index of 2.08.
For VNVPGSFVCQCYSGYALAEDGKRD, the protein stability index was 2.32.
For VNVPGSFVCQCYSGYALAEDGKRR, the protein stability index was 1.25.
For VNVPGSFVCQCYSGYALAEDGKRL, the protein stability index was 1.86.
With VNVPGSFVCQCYSGYALAEDGKRM the protein stability index was 2.06.
VNVPGSFVCQCYSGYALAEDGKRN showed a protein stability index of 2.72.
With VNVPGSFVCQCYSGYALAEDGKRY the protein stability index was 2.41.
In the case of VNVPGSFVCQCYSGYALAEDGKRS, the protein stability index is reported as 2.14.
VNVPGSFVCQCYAGYALAEDGKRC gave a protein stability index of 2.39.
For VNVPGSFVCQCYLGYALAEDGKRC, the protein stability index was 2.52.
